Measured values: patent publication US20230303685A1 (ELECTRA THERAPEUTICS, published 2023)

T1: Human SIRPγ CHO
T1 construct: also called human SIRPγ on CHO cells
T1 chain: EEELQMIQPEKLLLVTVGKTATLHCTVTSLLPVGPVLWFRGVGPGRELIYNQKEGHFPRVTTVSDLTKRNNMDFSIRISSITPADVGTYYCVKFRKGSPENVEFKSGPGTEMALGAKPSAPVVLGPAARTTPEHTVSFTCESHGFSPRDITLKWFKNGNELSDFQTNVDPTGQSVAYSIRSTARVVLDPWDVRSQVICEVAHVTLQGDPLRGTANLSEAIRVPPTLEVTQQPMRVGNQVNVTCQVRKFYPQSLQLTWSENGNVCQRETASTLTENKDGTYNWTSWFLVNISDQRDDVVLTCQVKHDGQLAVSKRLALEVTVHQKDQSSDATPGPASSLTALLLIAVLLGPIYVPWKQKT

T2: Human SIRPβ1
T2 construct: also called human SIRPβ1 extracellular domain, plate-coated
T2 chain: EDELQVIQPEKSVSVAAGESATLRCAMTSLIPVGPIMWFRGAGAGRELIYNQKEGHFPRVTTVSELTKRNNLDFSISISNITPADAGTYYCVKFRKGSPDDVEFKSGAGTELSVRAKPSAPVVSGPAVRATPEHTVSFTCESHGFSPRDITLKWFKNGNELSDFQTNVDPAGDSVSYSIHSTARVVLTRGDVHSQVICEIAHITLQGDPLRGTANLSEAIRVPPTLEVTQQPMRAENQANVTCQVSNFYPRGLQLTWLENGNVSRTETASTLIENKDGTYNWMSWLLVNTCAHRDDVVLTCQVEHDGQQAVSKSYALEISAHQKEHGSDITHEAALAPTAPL

T3: Human SIRPγ
T3 construct: also called human SIRPγ extracellular domain, plate-coated
T3 chain: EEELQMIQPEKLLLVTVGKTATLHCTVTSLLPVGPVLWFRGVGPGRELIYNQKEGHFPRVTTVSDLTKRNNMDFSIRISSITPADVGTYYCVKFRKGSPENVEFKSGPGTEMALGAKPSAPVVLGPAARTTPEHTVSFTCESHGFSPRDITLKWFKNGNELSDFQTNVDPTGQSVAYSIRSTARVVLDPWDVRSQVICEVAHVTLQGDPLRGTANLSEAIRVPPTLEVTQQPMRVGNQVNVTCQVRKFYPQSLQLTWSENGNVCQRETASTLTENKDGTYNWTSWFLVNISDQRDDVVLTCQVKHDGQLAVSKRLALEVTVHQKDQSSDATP

B1: Antibody 3 (antibody, V domains shown)
VH: QVQLQESGPGLVKPSGTLSLTCAVSGGSISSSNWWSWVRQPPGKGLEWIGEIYHSGNTNYNPSLKSRVTISVDKSKNQFSLKLSSVTAADTAVYYCAREGIEGYYFYYGMDVWGQGTTVTVSS
VL: DIQLTQSPSFLSASVGDRVTITCRASQGISGYLDWYQQKPGKAPKLLIYAASTLQRGVPSRFSGSGSGTDFNLTISSLQPEDFATYYCQQFTSDLITFGQGTRLEIK
notes: Human variable region, rat IgG2b Fc; from hybridoma
B2: Antibody 8 (antibody, V domains shown)
VH: QVQLQQWGAGLLKPSETLSLTCAVYGGSFSGYYWSWIRQPPGKGLEWIGEINHSGSTNFNPSLKSRVTISVDTSKNQFSLKLRSVTAADTAVYYCSRVDSGSYPYYDGLDVWGQGTTVTVSS
VL: SSELTQPPSVSVSPGQTASITCSGDKLGDKYVYWYQQKPGQSPVLVIYHDDRRPAGIPERFAGSASGNTATLTISGTQAMDEADYYCQTWDSSTVVFGGGTKLTVL
notes: as for B1
B3: Antibody 9 (antibody, V domains shown)
VH: QVQLQQWGAGLLKPSETLSLTCAVYGGSFSTYYWNWIRQPPGKGLEWIGEINHSGSTNYNPSLKSRVIISVDTSKNQFSLKLSSVTAADTAVYYCASSHYGSGSFPDSYGMDVWGQGTTVTVSA
VL: SYELTQSPSVSVSPGQTASITCSGDKLGDRYAWWYQQKPGQSPVLVIYQDDKRPSGIPERFSGSNSGNTATLTISGTQAMDEADYYCQAWDSSTAVFGGGTKLTVL
notes: as for B1
B4: Antibody 10 (antibody, V domains shown)
VH: EVQLLESGGGLVQPGGSLRLSCAASGFTFSSYAMSWVRQAPGKGLEWVSAISGSGGDTYYADSVKGRFTISRDNSKSTLYLQMNSLRAEDTAVYYCAKDGGSYYPPFDYWGQGTLVTVSS
VL: SYELTQPPSVSVSPGQTASITCSGDKLGDRYACWYQQKPGQSPVLVIYQDTKRPSGIPERFSGSNSGNTATLTISGTQAMDEADYYCQACDSSTAVFGGGTKLTVL
notes: as for B1
B5: Antibody 14 (antibody, V domains shown)
VH: QVQLVESGGGVVQPGRSLRLSCVASGFIFSNYGMHWVRQAPGKGLEWVAVISYDGRNEDHVDSVKGRFTISRDNSKNTLYLQMNSLRAEDTAVYYCAKGSGSYYFDYWGQGTLVTVSS
VL: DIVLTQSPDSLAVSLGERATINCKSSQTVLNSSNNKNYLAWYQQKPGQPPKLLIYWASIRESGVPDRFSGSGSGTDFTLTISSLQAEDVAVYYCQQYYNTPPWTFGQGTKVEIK
notes: as for B1
B6: Antibody 23 (antibody, V domains shown)
VH: QVQLQESGPGLVKPSGTLSLTCAVSGGSISSSNWWSWVRQPPGKGLEWIGEIYHSGSTNYNPSLKSRVTISVDKSKNQFSLKLSSVTAADTAVYYCARRGIWFGVGPWGQGTLVTVSS
VL: DIVMTQSPLSLPVTPGEPASISCRSSQSLLHGNGFNYLDWYLQKPGQSPQLLIYLGSNRASGVPDRFTGSGSGTDFTLKISRVEAEDVGVYYCMQGLQTPRTFGQGTKVEIK
notes: Variable regions of Antibody 1
B7: Antibody 24 (antibody, V domains shown)
VH: QVQLQESGPGLVKPSGTLSLTCAVSGGSISSSNWWSWVRQPPGKGLEWIGEIYHSGNTNYNPSLKSRVTISVDKSKNQFSLKLSSVTAADTAVYYCAREGIEGYYFYYGMDVWGQGTTVTVSS
VL: DIQLTQSPSFLSASVGDRVTITCRASQGISGYLDWYQQKPGKAPKLLIYAASTLQRGVPSRFSGSGSGTDFNLTISSLQPEDFATYYCQQFTSDLITFGQGTRLEIK
notes: Variable regions of Antibody 3

Key:
[1] = target: T4, human SIRPα V1-His monomer (human, UniProt P78324 31-373, limits assumed); test: BLI (Octet); antibody on anti-mouse IgG capture tip, SIRP-His monomer at 100, 33.3, 11.1 nM, 1:1 fit, mean KD
T4 construct: 'SIRP-His monomer protein' of the Octet assay; also called SIRP-His; not shown: His tag
Procedure: (§1) Select SIRP antibodies were tested for their affinities to human SIRPα, SIRPβ1, and SIRPγ using a biolayer interferometry (BLI) Octet system (Pall ForteBio). Each SIRP antibody with rat or mouse Fc was immobilized on a biosensor tip by an anti-mouse IgG capture (AMC). Antibodies with human Fc were digested with gingipain K enzyme to yield monomeric F(ab′), biotinylated, then coated onto streptavidin biosensors. […] The biosensors were then exposed to wash buffer to measure off-rate kinetics. The resulting kinetic data were analyzed and fitted using a 1:1 binding model with kₒₙ and kdis fitted separately at each SIRP-His protein concentration. KD affinities were calculated as kdis to kₒₙ ratio at each concentration of SIRP-His and averaged.

[2] = target: T5, human SIRPβ1-His monomer (human, UniProt O00241 30-371); test: as above
T5 construct: 'SIRP-His monomer protein' of the Octet assay; also called SIRP-His; not shown: His tag
Procedure: as §1

[3] = target: T6, human SIRPγ-His monomer (human); test: as above
T6 construct: 'SIRP-His monomer protein' of the Octet assay; also called SIRP-His; not shown: His tag
Procedure: as §1

[4] = target: T7, human SIRPα V1 extracellular domain, monomeric (human, UniProt P78324 31-373); test: SPR (Biacore); antibody captured by anti-IgG on chip, monomeric SIRPα extracellular domain as analyte, 1:1 model
T7 construct: also called hSIRPα V1
Procedure: (§2) Selected antibodies were tested for their affinities to two hSIRPα variants (V1 and V2), and to cynomolgus monkey (herein referred to as “cyno”) SIRPα. The affinities of these SIRP antibodies were determined using surface plasmon resonance. The SIRP antibodies were flowed onto a chip and captured by an anti-mouse IgG or an anti-human IgG covalently coupled to the surface of the chip. A three-point titration of the extracellular binding domain of hSIRPα was performed per the manufacturer's recommended protocols.

[5] = target: T8, cynomolgus monkey SIRPα extracellular domain, monomeric (cynomolgus monkey, UniProt A0A2K5VYQ9 31-372); test: as above
T8 construct: extracellular domain; also called Cyno SIRPα
Procedure: as §2

[6] = target: T1, Human SIRPγ CHO; test: flow cytometry, stably transfected CHO cells, antibody titrated, labelled anti-rat or anti-mouse IgG, MFI
Procedure: (§3) Selected antibodies were tested for binding to stably transfected human SIRPα, SIRPβ1 (co-transfected with DAP12), or SIRPγ Chinese hamster ovary (CHO) cells via flow cytometry. A titration of SIRP antibodies was added to the cells and detected using a fluorescently labelled secondary antibody. Graph depicts the median fluorescence intensity (MFI) at each concentration.

[7] = target: T9, Cynomolgus Monkey SIRPγ (Macaca fascicularis); test: ELISA, extracellular domain coated at 2 µg/mL, purified antibody titrated, anti-rat or anti-mouse IgG, chemiluminescence
T9 construct: extracellular domain; also called cyno SIRPγ extracellular domain, plate-coated
Procedure: (§4) Select SIRP antibodies were purified by Protein G from hybridoma supernatants and analyzed in a titration via ELISA. Briefly, 2 μg/mL of extracellular domain of each of the SIRPs was coated onto high protein-binding plates and blocked. Purified antibodies were added in a titration to the coated plates. The antibodies were detected by an anti-rat IgG or an anti-mouse IgG antibody and a chemiluminescent substrate.

[8] = target: T2, Human SIRPβ1; test: as above
Procedure: as §4

[9] = target: T3, Human SIRPγ; test: as above
Procedure: as §4

[10] = target: T7, human SIRPα V1 extracellular domain, …; test: as above
Procedure: as §4

[11] = target: T10, Human SIRPγ conjugated to an Fc region (human); test: BLI blocking; 200 nM antibody pre-incubated with 20 nM SIRPγ-Fc, binding to immobilised CD47-His (competitor), % of response of SIRPγ-Fc alone
T10 construct: also called SIRPγ-Fc; SIRP-Fc; not shown: Fc region

[12] = target: T11, Human SIRPβ1/DAP12 CHO; test: flow cytometry, stably transfected CHO cells, antibody titrated, labelled anti-rat or anti-mouse IgG, MFI
T11 construct: also called human SIRPβ1 on CHO cells co-transfected with DAP12; copies: 1 + 2
Procedure: as §3

[13] = target: T12, human SIRPα V2 extracellular domain, monomeric (human, UniProt P78324 31-370); test: SPR (Biacore); antibody captured by anti-IgG on chip, monomeric SIRPα extracellular domain as analyte, 1:1 model
T12 construct: also called hSIRPα V2
Procedure: as §2

[14] = target: T3, Human SIRPγ; test: ELISA, extracellular domain coated at 1 µg/mL, purified antibody titrated, anti-human IgG, chemiluminescence
Procedure: as §4, with “1” for “2”, “SIRPα” for “of each of the SIRPs”, “IgG” for “IgG or an anti-mouse IgG”
FIGS. 3A-3C show binding curves of SIRP antibodies and two isotype controls with human Fc to human SIRPα V1, human SIRPβ1, human SIRPγ and cynomolgus monkey SIRPα by ELISA. […] Isotype control 1 was an unrelated human IgG1 antibody with irrelevant CDRs. Isotype control 2 was the same as isotype control 1 but contained the same amino acid substitutions in the Fc region as some of the selected SIRP antibodies for increased FcγR binding (referring to Table 11). DNA was transiently transfected into CHO cells for 7 days. Antibodies were purified by Protein A from cell supernatants and analyzed in a titration via ELISA as previously described in FIGS. 2A-2B using an anti-human IgG antibody as the detection antibody.

T11 sequence (DAP12, as listed by the source limits assumed): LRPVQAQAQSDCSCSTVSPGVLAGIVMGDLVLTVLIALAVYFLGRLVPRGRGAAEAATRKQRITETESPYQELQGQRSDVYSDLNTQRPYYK

Row | Binder | Kd [1] [µM] | Kd [2] [µM] | Kd [3] [µM] | Kd [4] [µM] | Kd [5] [µM] | EC50 (read off the curve) [6] [mg/L] | EC50 (read off the curve) [7] [mg/L] | EC50 (read off the curve) [8] [mg/L] | EC50 (read off the curve) [9] [mg/L] | EC50 (read off the curve) [10] [mg/L] | SIRPγ-CD47 Response (%) [11] [%] | binding result [12] | binding result [6] | binding result [9] | Kd [13] [µM] | EC50 (read off the curve) [14] [mg/L]
1 | B1 | 0.0031 | 7.5 | 0.103 | 0.00457 | 0.513 | ~0.2 | ~0.1 | ~0.06 | ~0.06 | ~0.1 | -7.23 |  |  |  |  | 
2 | B2 | 0.0466 | 0.0789 | 0.05 |  |  |  | ~0.03 | ~0.02 | ~0.02 | ~0.03 | -4.94 | binds | binds |  |  | 
3 | B3 | 0.00124 |  |  |  |  |  |  |  |  |  |  |  | binds | binds |  | 
4 | B4 | 0.0576 |  | 0.00137 |  |  |  |  |  |  |  | -4.29 |  | binds | binds |  | 
5 | B5 |  |  | 0.0387 |  |  |  | ~0.09 |  | ~0.05 |  | 14.4 |  | binds |  |  | 
6 | B6 |  |  |  | 0.323 | 0.384 |  |  |  |  |  |  |  |  |  | 0.374 | ~0.04
7 | B7 |  |  |  | 0.00289 | 0.015 |  |  |  |  |  | -37.9 |  |  |  | 0.0226 | ~0.02
